Reference: US20180369425A1, “LINKED AND OTHER pH-TRIGGERED COMPOUNDS” (priority 2017, published 2018)
Residues, ends and D or L forms follow the SMILES beside them. *: point of attachment. X1 = CC1(C)C(/C=C/C=C/C=C/C=C2/N(CCCCCC(=O)NCCN3C(=O)CC(*)C3=O)c3ccc4ccccc4c3C2(C)C)=[N+](CCCCS(=O)(=O)[O-])c2ccc3ccccc3c21

Test system: red blood cells (RBCs)
Test: Hemolysis assay with ICG-pHLIP
Format: cell-based, human
Details: 0.075 to 1.2 nmol in 150 μL, 37° C., 2 hours
Experimental: Single donor human whole blood was purchased from Innovative Research. Red blood cells (RBCs) were collected by centrifugation of whole blood at 2000 rpm for 10 minutes followed by washing three times with Dulbecco's PBS (DPBS) and re-suspended in DPBS at a concentration of 7.5% (v:v). Varying concentrations of ICG-pHLIP (0.075, 0.15, 0.3, 0.6, 1.2 nmol) in DPBS were added to RBCs to give a 5% RBC suspension (total volume of solution with RBC was 150 μL). The resultant mixtures were incubated at 37° C. for 2 hours and then centrifuged at 2000 rpm for 10 min. Hemolysis was assessed by the release of hemoglobin, which was monitored by measuring the absorbance at 450 nm of the supernatant hemoglobin. DPBS was used as negative controls. As positive controls, which result in 100% lysis of RBCs, we used i) water and ii) 10% of Triton X-100. The percentage of hemolysis was calculated as follows: […]
where, ODTest, ODNC, and ODPC are the optical density reading (absorbance) values of the test sample, negative control and positive control, respectively. The assay was performed in triplicate. The amount of RBC lysis was less than 2% in all samples. For the reference, in mice study 2.5 nmol of ICG pHLIP® is injected per mouse (a 20 g mouse has about 1.2 mL of blood), or 2.08 nmol/ml (the dose will be much lower in humans), while in hemolysis assay the maximum tested concentration was 8 nmol/ml.

CC(C)C[C@H](NC(=O)[C@H](Cc1ccc(O)cc1)NC(=O)[C@H](C)NC(=O)[C@H](CCCNC(=N)N)NC(=O)[C@H](Cc1c[nH]c2ccccc12)NC(=O)[C@@H]1CCCN1C(=O)[C@H](CC(N)=O)NC(=O)[C@H](CCC(N)=O)NC(=O)[C@H](CC(=O)O)NC(=O)[C@H](CC(=O)O)NC(=O)[C@H](CSC1CC(=O)N(CCNC(=O)CCCCCN2/C(=C/C=C/C=C/C=C/C3=[N+](CCCCS(=O)(=O)[O-])c4ccc5ccccc5c4C3(C)C)C(C)(C)c3c2ccc2ccccc32)C1=O)NC(=O)[C@H](C)N)C(=O)N[C@@H](CC(=O)O)C(=O)N[C@@H](CC(C)C)C(=O)N[C@@H](CC(C)C)C(=O)N[C@@H](Cc1ccccc1)C(=O)N1CCC[C@H]1C(=O)N[C@H](C(=O)N[C@@H](CC(=O)O)C(=O)N[C@H](C(=O)N[C@@H](CC(C)C)C(=O)N[C@@H](CC(C)C)C(=O)N[C@@H](CC(C)C)C(=O)N[C@@H](CC(=O)O)C(=O)N[C@@H](CC(C)C)C(=O)N[C@@H](CC(C)C)C(=O)N[C@@H](Cc1c[nH]c2ccccc12)C(=O)N[C@@H](C)C(=O)O)[C@@H](C)O)[C@@H](C)O (stereo partly shown) [ICG-pHLIP] (H-AC(X1)DDQNPWRAYLDLLFPTDTLLLDLLWA-OH)
RBC lysis: less than 2%
